The labels stand for the following.
B1: CRKL of DU145 cells (cell extract, membrane fraction, cell surface or serum-free condition medium) (other)
chain: MSSARFDSSDRSAWYMGPVSRQEAQTRLQGQRHGMFLVRDSSTCPGDYVLSVSENSRVSHYIINSLPNRRFKIGDQEFDHLPALLEFYKIHYLDTTTLIEPAPRYPSPPMGSVSAPNLPTAEDNLEYVRTLYDFPGNDAEDLPFKKGEILVIIEKPEEQWWSARNKDGRVGMIPVPYVEKLVRSSPHGKHGNRNSNSYGIPEPAHAYAQPQTTTPLPAVSGSPGAAITPLPSTQNGPVFAKAIQKRVPCAYDKTALALEVGDIVKVTRMNINGQWEGEVNGRKGLFPFTHVKIFDPQNPDENE
notes: Native protein from human DU145 prostate cancer cells; also called secreted CRKL; extracellular CRKL
B2: recombinant His-tag CRKL (rCRKL) (other)
chain: B1 chain
notes: Open reading frame of full-length CRKL cDNA cloned in pET28a, expressed in BL21; also called recombinant CRKL; rCKRL protein; not shown: His-tag from pET28a vector
B3: β3 integrin of DU145 cells (receptor, human, UniProt P05106 27-788, looked up)
chain: GPNICTTRGVSSCQQCLAVSPMCAWCSDEALPLGSPRCDLKENLLKDNCAPESIEFPVSEARVLEDRPLSDKGSGDSSQVTQVSPQRIALRLRPDDSKNFSIQVRQVEDYPVDIYYLMDLSYSMKDDLWSIQNLGTKLATQMRKLTSNLRIGFGAFVDKPVSPYMYISPPEALENPCYDMKTTCLPMFGYKHVLTLTDQVTRFNEEVKKQSVSRNRDAPEGGFDAIMQATVCDEKIGWRNDASHLLVFTTDAKTHIALDGRLAGIVQPNDGQCHVGSDNHYSASTTMDYPSLGLMTEKLSQKNINLIFAVTENVVNLYQNYSELIPGTTVGVLSMDSSNVLQLIVDAYGKIRSKVELEVRDLPEELSLSFNATCLNNEVIPGLKSCMGLKIGDTVSFSIEAKVRGCPQEKEKSFTIKPVGFKDSLIVQVTFDCDCACQAQAEPNSHRCNNGNGTFECGVCRCGPGWLGSQCECSEEDYRPSQQDECSPREGQPVCSQRGECLCGQCVCHSSDFGKITGKYCECDDFSCVRYKGEMCSGHGQCSCGDCLCDSDWTGYYCNCTTRTDTCMSSNGLLCSGRGKCECGSCVCIQPGSYGDTCEKCPTCPDACTFKKECVECKKFDRGALHDENTCNRYCRDEIESVKELKDTGKDAVNCTYKNEDDCVVRFQYYEDSSGKSILYVVEEPECPKGPDILVVLLSVMGAILLIGLAALLIWKLLITIHDRKEFAKFEEERARAKWDTANNPLYKEATSTFTNITYRGT
notes: whole, on cells; Control of the co-immunoprecipitation; also called other integrins (anti-β3)
B4: synthetic tumor-homing peptide YRCTLNSPFFWEDMTHECHA (SEQ ID NO:1) (peptide)
peptide: YRCTLNSPFFWEDMTHECHA
modifications: disulfide 3-18 (inferred)
notes: also called PSI domain-mimic peptide
B5: IL11 receptor of DU145 cells (receptor, human, UniProt Q14626 23-422, looked up)
chain: SSPCPQAWGPPGVQYGQPGRSVKLCCPGVTAGDPVSWFRDGEPKLLQGPDSGLGHELVLAQADSTDEGTYICQTLDGALGGTVTLQLGYPPARPVVSCQAADYENFSCTWSPSQISGLPTRYLTSYRKKTVLGADSQRRSPSTGPWPCPQDPLGAARCVVHGAEFWSQYRINVTEVNPLGASTRLLDVSLQSILRPDPPQGLRVESVPGYPRRLRASWTYPASWPCQPHFLLKFRLQYRPAQHPAWSTVEPAGLEEVITDAVAGLPHAVRVSARDFLDAGTWSTWSPEAWGTPSTGTIPKEIPAWGQLHTQPEVEPQVDSPAPPRPSLQPHPRLLDHRDSVEQVAVLASLGILSFLGLVAGALALGLWLRLRRGGKDGSPKPGFLASVIPVDRRPGAPNL
notes: whole, on cells; Unrelated transmembrane receptor, control of the co-immunoprecipitation
B6: synthetic PSI-derived peptide NSTFLQEGMPTSA (SEQ ID NO:23) (peptide)
peptide: NSTFLQEGMPTSA
notes: also called β1 integrin PSI-derived peptide

For experiment [1], the target named is B3. Briefly: reciprocal co-immunoprecipitation, DU145 membrane fractions.
Experiment [2] addresses B5. Described as above.
In experiment [3] the target is T1, β1 integrin of DU145 cells (membrane fraction / cell surface) (human, UniProt P05556 21-798).
T1 construct: Native β1 chain of human DU145 cells
The experiment is described as above.

Experiment [4] has as its target T2, β5 integrin of DU145 cells (human, UniProt P18084 24-799).
T2 construct: whole, on cells; Control of the co-immunoprecipitation; also called other integrins (anti-β5)
The description is as above.

The target of experiment [5] is T3, αvβ5 integrin (Chemicon) (UniProt P06756 31-1048; P18084 24-799).
T3 construct: Bought protein coated at 1 µg/well; also called control integrin
Briefly: CRKL on wells coated with integrin at 1 µg/well, anti-CRKL detection (FIG. 5). As for the experimental part:
(§1) Phage binding assays on purified proteins were carried out as described (Giordano et al. 2001). Recombinant proteins were coated on microtiter wells as previous described (Cardo-Vila et al., 2003; Smith and Scott, 1993). Briefly, proteins were immobilized on microtiter wells overnight at 4° C. 50 μl of 1 μg/ml in PBS. Wells were washed twice with PBS, blocked with PBS containing 3% BSA for 2 hours at room temperature, and incubated with 10⁹ T.U. wild-type tumor-homing phage ([…]; SEQ ID NO:1), scrambled phage ([…] (SEQ ID NO:26), […] (SEQ ID NO:27), […] (SEQ ID NO:29), […] (SEQ ID NO:30)), mutant phage ([…] (SEQ ID NO:25), […] (SEQ ID NO:28)), PSI-derived cyclic phage ([…]; SEQ ID NO:23) or fd-tet phage in 50 μl of PBS containing 1.5% BSA. After 1 hour at room temperature, wells were washed ten times with PBS and phage were recovered by bacterial infection. ELISA with polyclonal anti-CKRL confirmed the presence and concentration of the CKRL recombinant proteins on the wells. To test the binding of the tumor-homing phage to SH3 containing proteins, microtiter-wells were coated at 4° C. overnight with 250 μg/ml of recombinant gst-SH3 domains (CKRL-D1, CKRL-D2, grb2-D1, grb2-D2, Lyn, src; Pronomics), rCKRL protein, and negative controls gst or BSA. […] After 3 hours, binding of CKRL to integrins was detected by using an anti-CKRL antibody followed by an HRP-conjugated anti-rabbit IgG. […]

Experiment [6] addresses T4, αvβ3 integrin (Chemicon) (UniProt P06756 31-1048; P05106 27-788).
T4 construct: Bought protein coated at 1 µg/well; also called control integrin
Described as above. As for the experimental part:
as §1

The target in experiment [7] is B2. Briefly: ELISA, His-tag protein on coated synthetic peptide (FIG. 3A). As for the experimental part:
(§2) Synthetic tumor-homing peptide ([…]; SEQ ID NO:1) or PSI-derived peptide ([…]; SEQ ID NO:23) were coated on microtiter plates followed by blocking, and washing. The following recombinant His-tag proteins were added to the coated plates: rCRKL, rCRKL-SH2 domain, rCRKL-SH3 (N) domain, and rCRKL-SH3 (C) domain. An unrelated control protein (α2-Heremans-Schmid glycoprotein; AHSG) served as a negative control. The mixtures were incubated, washed, and labeled with the appropriate antibodies. Secondary antibodies conjugated to horse-radish peroxidase (HRP) were added followed by adding TMB substrate (Calbiochem), and analyzed by an automated ELISA reader (Bio-Tek). To determine the inhibitory activity of the tumor-homing peptide, the PSI-derived peptide, or the phage clone displaying the corresponding tumor-homing peptide were incubated with the rCRKL-SH3 (C) domain. Unrelated cyclic peptide sequences and insertless phage (fd-tet) served as negative controls. The admixtures were incubated and added to wells coated with the tumor-homing peptide. After incubation, the wells were washed, labeled with the appropriate antibodies, and processed as above.
Background: An ELISA detects its analyte on a solid surface through an enzyme-linked reagent.

Experiment [8] has as its target B2. Briefly: ELISA, His-tag protein on coated synthetic peptide. As for the experimental part: as §2

Bridge positions count the residues as written; N and C are the ends. Ends that are not written are not given here.

T1 sequence (P05556 21-798 limits assumed): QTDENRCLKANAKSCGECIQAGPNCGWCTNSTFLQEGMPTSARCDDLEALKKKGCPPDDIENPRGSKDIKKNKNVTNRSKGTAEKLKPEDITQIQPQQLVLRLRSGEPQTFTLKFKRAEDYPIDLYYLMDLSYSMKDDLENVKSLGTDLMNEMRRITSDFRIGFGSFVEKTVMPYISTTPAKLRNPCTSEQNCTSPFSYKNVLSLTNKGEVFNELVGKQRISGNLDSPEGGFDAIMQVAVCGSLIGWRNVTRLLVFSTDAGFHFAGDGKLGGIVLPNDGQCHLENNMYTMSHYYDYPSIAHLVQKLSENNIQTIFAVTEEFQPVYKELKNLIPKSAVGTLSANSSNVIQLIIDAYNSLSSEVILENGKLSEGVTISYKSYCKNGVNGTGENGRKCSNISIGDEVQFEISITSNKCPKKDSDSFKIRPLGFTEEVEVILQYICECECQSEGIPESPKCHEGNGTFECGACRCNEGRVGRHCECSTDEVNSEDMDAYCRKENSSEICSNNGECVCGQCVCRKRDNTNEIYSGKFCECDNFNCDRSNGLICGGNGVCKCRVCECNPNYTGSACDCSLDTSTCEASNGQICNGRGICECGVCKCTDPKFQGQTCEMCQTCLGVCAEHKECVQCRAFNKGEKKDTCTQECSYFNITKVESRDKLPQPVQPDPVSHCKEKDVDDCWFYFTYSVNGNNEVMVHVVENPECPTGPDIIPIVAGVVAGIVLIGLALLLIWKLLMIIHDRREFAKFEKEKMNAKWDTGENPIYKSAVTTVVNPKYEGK
T2 sequence (P18084 24-799): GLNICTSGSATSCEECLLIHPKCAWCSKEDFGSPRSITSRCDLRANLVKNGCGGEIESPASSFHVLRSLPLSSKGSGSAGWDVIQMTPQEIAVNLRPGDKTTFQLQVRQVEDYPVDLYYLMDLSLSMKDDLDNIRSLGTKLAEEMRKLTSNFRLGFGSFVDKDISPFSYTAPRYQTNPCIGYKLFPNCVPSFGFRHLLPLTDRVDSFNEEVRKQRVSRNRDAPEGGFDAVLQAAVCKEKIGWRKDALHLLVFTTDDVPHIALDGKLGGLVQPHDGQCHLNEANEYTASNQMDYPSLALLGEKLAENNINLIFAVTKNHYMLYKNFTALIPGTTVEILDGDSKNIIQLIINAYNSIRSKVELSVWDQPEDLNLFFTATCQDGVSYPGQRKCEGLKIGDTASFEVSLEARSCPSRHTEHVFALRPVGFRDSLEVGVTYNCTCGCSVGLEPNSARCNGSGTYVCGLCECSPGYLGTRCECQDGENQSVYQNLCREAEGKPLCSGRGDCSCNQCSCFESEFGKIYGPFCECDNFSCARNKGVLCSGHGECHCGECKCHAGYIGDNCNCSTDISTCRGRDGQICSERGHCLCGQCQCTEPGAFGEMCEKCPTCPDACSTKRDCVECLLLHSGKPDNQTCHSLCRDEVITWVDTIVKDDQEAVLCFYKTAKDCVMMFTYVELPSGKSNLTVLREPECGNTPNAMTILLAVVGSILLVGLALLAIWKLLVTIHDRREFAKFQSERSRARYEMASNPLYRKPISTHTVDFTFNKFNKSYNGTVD
T3 sequence (P06756 31-1048, chain 1 of 2): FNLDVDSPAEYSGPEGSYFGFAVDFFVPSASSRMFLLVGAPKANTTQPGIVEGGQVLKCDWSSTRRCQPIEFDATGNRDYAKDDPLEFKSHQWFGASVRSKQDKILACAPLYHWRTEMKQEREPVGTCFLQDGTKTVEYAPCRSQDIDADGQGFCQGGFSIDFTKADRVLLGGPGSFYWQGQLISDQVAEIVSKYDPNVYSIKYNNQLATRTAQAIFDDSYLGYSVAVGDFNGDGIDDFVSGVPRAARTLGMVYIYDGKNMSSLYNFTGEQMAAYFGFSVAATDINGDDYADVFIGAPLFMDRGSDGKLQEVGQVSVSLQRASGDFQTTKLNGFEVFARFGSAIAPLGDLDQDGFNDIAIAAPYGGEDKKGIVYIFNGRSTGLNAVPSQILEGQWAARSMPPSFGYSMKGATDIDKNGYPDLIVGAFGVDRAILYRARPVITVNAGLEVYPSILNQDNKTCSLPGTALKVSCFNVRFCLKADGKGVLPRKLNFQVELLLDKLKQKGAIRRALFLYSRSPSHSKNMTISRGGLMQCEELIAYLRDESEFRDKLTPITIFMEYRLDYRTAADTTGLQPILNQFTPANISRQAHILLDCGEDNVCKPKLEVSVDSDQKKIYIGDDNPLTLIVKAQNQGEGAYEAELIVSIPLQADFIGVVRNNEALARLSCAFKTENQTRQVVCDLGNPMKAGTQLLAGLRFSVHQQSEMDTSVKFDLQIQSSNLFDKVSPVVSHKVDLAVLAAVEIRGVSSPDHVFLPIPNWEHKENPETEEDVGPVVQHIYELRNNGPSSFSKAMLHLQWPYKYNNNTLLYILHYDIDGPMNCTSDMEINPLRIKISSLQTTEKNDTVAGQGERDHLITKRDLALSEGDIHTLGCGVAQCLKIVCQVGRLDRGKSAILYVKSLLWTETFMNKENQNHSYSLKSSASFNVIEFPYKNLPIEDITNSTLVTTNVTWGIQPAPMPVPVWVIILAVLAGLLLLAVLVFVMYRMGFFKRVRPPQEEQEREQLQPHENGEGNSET
T3 sequence (P18084 24-799, chain 2 of 2): as the sequence (P18084 24-799) above
T4 sequence (P06756 31-1048, one chain of several): as the sequence (P06756 31-1048, chain 1 of 2) above

As to B1, the binding result in experiment [1] is “no binding”; in experiment [2], “no binding”; in experiment [3] it was “binds”; in experiment [4] it was “no binding”.

Consider B2, for which the binding result in experiment [5] and in experiment [6] was “no binding” each time.

Turning to B3, in experiment [3], the binding result was “no binding”.

Take B4: the binding result in experiment [7] is on record as “binds”.

On to B5, for which, in experiment [3], the binding result was “no binding”.

For the molecule B6, the binding result in experiment [8] is “binds”.

Source of the values: patent US20110189095A1 (University of Texas, published 2011).
